Measured values reported in PMC1097722.

Molecular target: Gal4-16.4.1 fusion protein (pBIND-16.4.1) (human)
Test: two-hybrid

other [fold]	Substance	fold induction of luciferase activity [fold]
41	VP16-hCRM1 fusion protein (pACT-hCRM1) (from UniProt O14980 1-1071) (natural protein)	–
–	VP16-Rev fusion protein (pACT-Rev) (from UniProt P04618 1-116) (natural protein)	11
